Assays:
[1] = target: T1, full length human EGFR expressed on the cell surface (human, UniProt P00533 25-1210); test: cell ELISA, Fab on A431-NS cells
T1 construct: whole, on cells; also called EGFR on A431-NS cells; EGFR on HN5 cells
Description: (§1) Cell ELISA: The relative binding affinities defined as the molar concentration giving the half maximal OD (ED50) were determined by antibody titrations on A431-NS cells. Briefly, 10,000 A431-NS cells were grown in 96 well ELISA plates containing DMEM with added 0.5% FCS and 1% P/S at 37° C., 5% CO₂ overnight. […] Then 50 μl of a secondary Goat-anti-Human (Fab specific) HRP conjugate diluted 1:5000 in DMEM containing 1% BSA was added and incubated on ice for 30 min. Finally wells were washed four times with PBS and plates developed by adding 50 μl/well TMB Plus substrate and read at 620 nm every 5-15-30 min. After incubation with substrate the reaction was stopped by addition of 1 M H₂SO₄ and absorbance read at 450 nm. The functional affinity expressed as ED50 values were calculated by subtraction of the average background binding with secondary reagent only, followed by normalization of the binding curves by plotting % maximal binding relative to each antibody tested.

[2] = target: T2, EGFR-Fc (recombinant EGFR ECD-Fc chimera, R&D Systems 344-ER) (human, UniProt P00533 25-645); test: SPR (BIAcore 2000); Fab over immobilized EGFR ECD-Fc
T2 construct: extracellular domain; Bought; also called immobilized Human EGFR ECD; immobilized receptor; not shown: human IgG Fc

[3] = target: T1, full length human EGFR expressed on the …; test: cell ELISA, Fab titrated on paraformaldehyde-fixed A431-NS cells
Description: as §1

[4] = target: T1, full length human EGFR expressed on the …; test: cell ELISA, Fab titrated on paraformaldehyde-fixed A431-NS cells; given as ED50
Description: as §1

[5] = target: T2, EGFR-Fc (recombinant EGFR ECD-Fc …); test: SPR (BIAcore 2000); Fab over immobilized EGFR ECD-Fc; Scatchard analysis
[6] = target: T1, full length human EGFR expressed on the …; test: cell ELISA, Fab titrated on paraformaldehyde-fixed A431-NS cells, against SPR
Description: as §1

[7] = target: T3, recombinant human EGFR extracellular domain with 6xHis (human, UniProt P00533 25-645); test: SPR (Biacore 3000) on captured 6xHis EGFR ECD
T3 construct: In-house produced; also called 6xHis EGFR ECD; soluble human EGFR ECD; not shown: 6xHis tag

[8] = target: T4, Cynomolgus EGFR extracellular domain (Cynomolgus monkey (Macaca fascicularis), UniProt P55245 25-645 (rhesus entry)); test: ELISA on cynomolgus EGFR ECD (Example 10)
T4 construct: Cloned without signal peptide; also called Cynomolgus rEGFR ECD; Cynomolgus EGFR ECD
Description: To verify that tested Anti-EGFR antibodies bound equally well to both Human and Cynomolgus EGFR ECD and accordingly warranting toxicology studies in Cynomolgus monkeys, serial four fold dilutions of antibodies beginning from 1 μg/ml were tested by ELISA for binding to recombinant Human and Cynomolgus EGFR ECD proteins. […] ELISA wells were coated with 50 μl/well of full length EGFR at a concentration of 1 μg/ml in PBS overnight at 4° C. The next morning wells were washed twice with PBS-T and blocked for one hour with 100 μl PBS-T-1% BSA at room temperature, followed by wash twice in PBS-T. Next 50 μl of serially diluted Anti-EGFR antibodies and control antibodies were added to wells and incubated for one hour at room temperature. After antibody incubation wells were washed five times with PBS-T, followed by incubation with 50 μl/well Streptavidin-HRP secondary reagent diluted 1:3000 in blocking buffer and incubation at room temperature for 30 min. Finally wells were washed five times with PBS-T and plates were developed by adding 50 μL/well TMB substrate and incubated at room temperature. After incubation the reaction was stopped by addition of 1 M H₂SO₄; 100 μl/well and plates were read at OD 450 nm.

[9] = target: T5, wild type full length EGFR purified from A431 cells (human, UniProt P00533 25-1210); test: indirect ELISA, Fab on coated purified full length EGFR
T5 construct: mature; Bought; coated on ELISA wells; also called full length EGFR receptor antigen; Sigma E3641

[10] = target: T2, EGFR-Fc (recombinant EGFR ECD-Fc …); test: SPR (BIAcore 2000); Fab over immobilized EGFR ECD-Fc against IgG with soluble EGFR ECD

B1: Fab 1024 (Fab, V domains shown, not shown: small tags and cut ends)
VH: QVQLQQPGAELVEPGGSVKLSCKASGYTFTSHWMHWVKQRPGQGLEWIGEINPSSGRNNYNEKFKSKATLTVDKSSSTAYMQFSSLTSEDSAVYYCVRYYGYDEAMDYWGQGTSVTVS
VL: DIVMTQAAFSNPVTLGTSASISCRSSKSLLHSNGITYLYWYLQKPGQSPQLLIYQMSNLASGVPDRFSSSGSGTDFTLRISRVEAEDVGVYYCAQNLELPYTFGGGTKLEIKR
B1 was tested, and the “EC50 (read off the curve)” value [1] was roughly 2 nM, the Kd [2] was 25.6 nM and the koff [2] was 0.0049 s⁻¹. The kon [2] was 190000 M⁻¹ s⁻¹, the “t1/2” value [2] was 2.3 min and the “Log ED50” value [3] was 0.3. For the same binder, the EC50 [4] was 2 nM.

B2: Fab 992 (Fab, V domains shown, not shown: small tags and cut ends)
VH: EVQLQQPGSELVRPGASVKLSCKASGYTFTSYWMHWVKQRPGQGLEWIGNIYPGSRSTNYDEKFKSKATLTVDTSSSTAYMQLSSLTSEDSAVYYCTRNGDYYVSSGDAMDYWGQGTSVTVS
VL: DIQMTQTTSSLSASLGDRVTISCRTSQDIGNYLNWYQQKPDGTVKLLIYYTSRLHSGVPSRFSGSGSGTDFSLTINNVEQEDVATYFCQHYNTVPPTFGGGTKLEIKR
In the case of B2, the “t1/2” value [2] is reported as 0.2 min, the “Log ED50” value [3] is reported as 1 and the Kd [5] is reported as 150 nM. For the same binder, the “fold lower monovalent functional affinity value on cells than tested with BIAcore” value [6] was no less than 15 fold and the EC50 [4] was 9.9 nM.

B3: antibody 1229 (antibody, human IgG1, kappa, V domains shown)
VH: QVQLKESGPGLVAPSQSLSITCSVSGFSLTIYGVHWVRQPPGKGLEWLGVMWAGGNTDYNSALMSRLNISKDNSKSQVFLKVNSLQTDDTAMYYCTRDPDGYYVGWFFDVWGAGTTVTVSS
VL: DIVMTQSHKFMSTSVGDRVSITCKASQDVTNAVAWYQQKPGQSPKLLIYWASIRHTGVPDRFTGSRSGTDYTLTINSVQAEDLALYYCQQHYNTPLTFGAGTKLEIKR
notes: Chimeric IgG1 kappa
B3: no binding (tested: 40 ug/ml) [7]; no binding [8].

B4: Fab 1030 (Fab, V domains shown, not shown: small tags and cut ends)
VH: EVQLVESGGGLVKPGGSLKLSCAASGFTFSSYALSWVRQTPERRLEWVASISGVGSTYFPDSVKGRFTMSRDNARNILYLQMSSLRSEDTAMYYCARGSDGYFYAMDYWGQGTSVTVS
VL: DIVLTQSPASLAVSLGQRATISCRASKSVSTSGYSFMHWYQLKPGQPPKLLIYLASNLESGVPARFSGSGSGTDFTLNIHPVEEEDAATYYCQHSREFPLTFGGGTKLEIKR
For B4, the “EC50 (read off the curve)” value [1] was roughly 1 nM, the Kd [2] was 2.3 nM and the koff [2] was 0.0002 s⁻¹. For the same binder, the kon [2] was 87000 M⁻¹ s⁻¹, the “t1/2” value [2] was 57.5 min and the “EC50 (read off the curve)” value [9] was roughly 4 nM. The “Log ED50” value [3] was 0.27, the EC50 [4] was 1.8 nM and the “fold higher affinity against immobilized antigen than against soluble receptor” value [10] was 10 fold.
